The values below come from publication PMC13223232, “Structural basis for TRF2-RAP1 recruitment by EBNA1 at the EBV origin of replication” (Scientific Reports, 2025).

Data set [1] concerns the target EBNA1 459-607;TRF2 TRFH domain (Epstein-Barr virus;Homo sapiens?, UniProt P03211;Q15554 459-607;85-287, |). Description: EMSA; clear TRFH supershift; EMSA: 10 mM HEPES pH 7.5, 300 mM KCl (100 mM for TRFH), 5 mM MgCl2, 1 mM ZnCl2, 5 mM BME, 0.05% NP-40, 5% glycerol; 5 nM probe; 20 nM EBNA1 in TRF2/Rap1 titrations; 1.4% agarose; temperature not stated. To be noted: protein: recombinant;recombinant; tags: ;GST (N-terminal); chain copies: 4;2; label: 5'-IRD700 on both strands (EMSA); text calls it 60 bp).

Data set [2] addresses EBNA1 DBD 401-607;TRF2 TRFH domain (Epstein-Barr virus;Homo sapiens?, UniProt P03211;Q15554 401-607;85-287, |). Described as above. To be noted: protein: recombinant;recombinant; tags: His6-SUMO (N-terminal, cleaved by ULP1);GST (N-terminal); chain copies: 4;2; label: 5'-IRD700 on both strands (EMSA); text calls it 60 bp).
A further data set addresses T1, Rap1 full length (UniProt Q9NYB0 1-399).
T1 sequence: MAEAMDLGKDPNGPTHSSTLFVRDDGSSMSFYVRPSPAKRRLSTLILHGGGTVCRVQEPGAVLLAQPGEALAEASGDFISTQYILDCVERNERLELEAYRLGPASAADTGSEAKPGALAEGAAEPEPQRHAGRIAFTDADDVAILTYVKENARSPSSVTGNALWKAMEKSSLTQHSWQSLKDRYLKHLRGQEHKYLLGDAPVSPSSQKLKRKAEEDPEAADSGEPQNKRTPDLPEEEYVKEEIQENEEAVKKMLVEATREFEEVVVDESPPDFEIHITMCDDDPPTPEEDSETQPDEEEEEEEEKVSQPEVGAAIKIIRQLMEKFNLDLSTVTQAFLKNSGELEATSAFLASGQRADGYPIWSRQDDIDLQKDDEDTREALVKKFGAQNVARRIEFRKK
Description: EMSA; up to 480 nM, no EBNA1; EMSA: 10 mM HEPES pH 7.5, 300 mM KCl (100 mM for TRFH), 5 mM MgCl2, 1 mM ZnCl2, 5 mM BME, 0.05% NP-40, 5% glycerol; 5 nM probe; 20 nM EBNA1 in TRF2/Rap1 titrations; 1.4% agarose; temperature not stated. Conditions: protein: recombinant; tags: His6-SUMO (N-terminal, cleaved by ULP1); label: 5'-IRD700 on both strands (EMSA); text calls it 60 bp).

The target in data set [3] is TRF2 full length;Rap1 full length (Homo sapiens?;Homo sapiens?, UniProt Q15554;Q9NYB0 1-542;1-399, |). Description: EMSA; discrete bandshift, no EBNA1; EMSA: 10 mM HEPES pH 7.5, 300 mM KCl (100 mM for TRFH), 5 mM MgCl2, 1 mM ZnCl2, 5 mM BME, 0.05% NP-40, 5% glycerol; 5 nM probe; 20 nM EBNA1 in TRF2/Rap1 titrations; 1.4% agarose; temperature not stated. To be noted: protein: recombinant;recombinant; tags: His6-SUMO (N-terminal, cleaved by ULP1);His6-SUMO (N-terminal, cleaved by ULP1); chain copies: 2;2; label: 5'-IRD700 on both strands (EMSA); text calls it 60 bp). On the technique in general: A gel shift assay detects complexes by their altered migration in electrophoresis.

The target of data set [4] is EBNA1 DBD 401-607;TRF2 full length (Epstein-Barr virus;Homo sapiens?, UniProt P03211;Q15554 401-607;1-542, |). Description: EMSA; TRF2 titrated with EBNA1 401-607; binding increased roughly twofold; EMSA: 10 mM HEPES pH 7.5, 300 mM KCl (100 mM for TRFH), 5 mM MgCl2, 1 mM ZnCl2, 5 mM BME, 0.05% NP-40, 5% glycerol; 5 nM probe; 20 nM EBNA1 in TRF2/Rap1 titrations; 1.4% agarose; temperature not stated. To be noted: protein: recombinant;recombinant; tags: His6-SUMO (N-terminal, cleaved by ULP1);His6-SUMO (N-terminal, cleaved by ULP1); chain copies: 4;2; label: 5'-IRD700 on both strands (EMSA); text calls it 60 bp).

For data set [5], the target named is EBNA1 DBD 401-607;TRF2 full length;Rap1 full length (Epstein-Barr virus;Homo sapiens?;Homo …, UniProt P03211;Q15554;Q9NYB0 401-607;1-542;1-399, ||). Description: EMSA; TRF2/Rap1 titrated with EBNA1 401-607; binding increased roughly twofold; EMSA: 10 mM HEPES pH 7.5, 300 mM KCl (100 mM for TRFH), 5 mM MgCl2, 1 mM ZnCl2, 5 mM BME, 0.05% NP-40, 5% glycerol; 5 nM probe; 20 nM EBNA1 in TRF2/Rap1 titrations; 1.4% agarose; temperature not stated. Conditions: protein: recombinant;recombinant;recombinant; label: 5'-IRD700 on both strands (EMSA); text calls it 60 bp).

Chain of EBNA1 DBD 401-607;TRF2 TRFH domain (Q15554 85-287, one chain of several): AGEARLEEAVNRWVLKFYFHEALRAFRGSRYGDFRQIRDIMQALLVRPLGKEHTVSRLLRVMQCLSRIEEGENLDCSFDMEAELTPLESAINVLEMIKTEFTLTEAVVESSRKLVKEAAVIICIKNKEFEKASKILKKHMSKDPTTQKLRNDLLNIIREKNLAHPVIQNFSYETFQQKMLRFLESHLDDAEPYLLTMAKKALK
Chain of EBNA1 459-607;TRF2 TRFH domain (Q15554 85-287, one chain of several): as above

B1: ½DS (EBV oriP dyad symmetry half) (dsDNA)
DNA 1: TAACCCTAATTCGATAGCATATGCTTCCCGTTGGGTAACATATGCTATTGAATTAGGGTTAG
DNA 2: CTAACCCTAATTCAATAGCATATGTTACCCAACGGGAAGCATATGCTATCGAATTAGGGTTA
B1: the binding result in data set [1] is on record as “binds”; in data set [2] it was “binds”; with Rap1 full length, “no binding”; in data set [3], “binds”; in data set [4], “binds”; in data set [5], “binds”.
